Data as given in publication PMC9407390 (Proceedings of the National Academy of Sciences of the …, 2022).

Biological target: the molecule itself
Test: crystal structure

B1: soluble C terminus (soluble domain, residues 343 to 882) of Medicago truncatula DMI1 (domain or fragment)
chain: SEVIERNHVLILGWSDKLGSLLKQLAIANKSVGGGVIVVLAEKEKEEMEMDIAKLEFDFMGTSVICRSGSPLILADLKKVSVSKARAIIVLAADENADQSDARALRVVLSLAGVKEGLRGHVVVEMSDLDNEPLVKLVGGELIETVVAHDVIGRLMIQCALQPGLAQIWEDILGFENAEFYIKRWPELDDLLFKDILISFPDAIPCGVKVAADGGKIVINPDDNYVLRDGDEVLVIAEDDDTYAPGPLPEVRKGYFPRIRDPPKYPEKILFCGWRRDIDDMIMVLEAFLAPGSELWMFNEVPEKERERKLAAGELDVFGLENIKLVHREGNAVIRRHLESLPLETFDSILILADESVEDSVAHSDSRSLATLLLIRDIQSRRLPYRDTKSTSLRLSGFSHNSWIREMQQASDKSIIISEILDSRTRNLVSVSRISDYVLSNELVSMALAMVAEDKQINRVLEELFAEEGNEMCIKPAEFYLFDQEELCFYDIMIRGRTRKEIVIGYRLANQERAIINPSEKSVPRKWSLDDVFVVLASGE
- stoichiometry N: 4
